From patent publication US20260097113A1 (Pfizer, published 2026)

What was measured:
[1] = molecular target: RSV A + RSV B bivalent composition (RSV subtype A; RSV subtype B); experiment: AM14 Fab titration by SEC; High-Slow 1 cycle; T0 (second value)
[2] = molecular target: RSV A + RSV B bivalent composition (RSV subtype A; RSV subtype B); experiment: AM14 Fab titration by SEC; High-Slow 1 cycle; 3 M 25°C
[3] = molecular target: RSV A + RSV B bivalent composition (RSV subtype A; RSV subtype B); experiment: AM14 Fab titration by SEC; Low-Fast cycle; T0 (second value)
[4] = molecular target: RSV A + RSV B bivalent composition (RSV subtype A; RSV subtype B); experiment: AM14 Fab titration by SEC; Low-Fast cycle; 3 M 40°C (second value)
[5] = molecular target: RSV A + RSV B bivalent composition (RSV subtype A; RSV subtype B); experiment: AM14 Fab titration by SEC; High-Slow 1 cycle; 8 M 2-8°C
[6] = molecular target: RSV A + RSV B bivalent composition (RSV subtype A; RSV subtype B); experiment: AM14 Fab titration by SEC; Low-Fast cycle; 8 M 25°C
[7] = molecular target: RSV A + RSV B bivalent composition (RSV subtype A; RSV subtype B); experiment: AM14 Fab titration by SEC; High-Slow 2 cycle; 1 M 40°C (second value)
[8] = molecular target: RSV A + RSV B bivalent composition (RSV subtype A; RSV subtype B); experiment: AM14 Fab titration by SEC; Target cycle; 8 M 25°C
[9] = molecular target: RSV A + RSV B bivalent composition (RSV subtype A; RSV subtype B); experiment: AM14 Fab titration by SEC; composition of Table 14; Freezing Ramp Aggressive cycle
[10] = molecular target: RSV A + RSV B bivalent composition (RSV subtype A; RSV subtype B); experiment: AM14 Fab titration by SEC; High-Slow 1 cycle; 1 M 40°C (second value)
[11] = molecular target: RSV A + RSV B bivalent composition (RSV subtype A; RSV subtype B); experiment: AM14 Fab titration by SEC; High-Slow 2 cycle; 3 M 25°C
[12] = molecular target: RSV A + RSV B bivalent composition (RSV subtype A; RSV subtype B); experiment: AM14 Fab titration by SEC; Target cycle; 3 M 2-8°C (second value)
[13] = molecular target: T1, RSV F protein of subtype A comprising a polypeptide of SEQ ID NO: 1 and a polypeptide of SEQ ID NO: 2 (RSV subtype A, UniProt P11209 137-513; P03420 26-109); experiment: AM14 ELISA; F5 (pH 6, 100 mM NaCl, 9.0% sucrose); 1 wk 25°C
T1 construct: Stabilized prefusion F trimer made of three F2-F1 heterodimers; Produced recombinantly in CHO cells; also called RSV A; RSVA
T1 chain 1: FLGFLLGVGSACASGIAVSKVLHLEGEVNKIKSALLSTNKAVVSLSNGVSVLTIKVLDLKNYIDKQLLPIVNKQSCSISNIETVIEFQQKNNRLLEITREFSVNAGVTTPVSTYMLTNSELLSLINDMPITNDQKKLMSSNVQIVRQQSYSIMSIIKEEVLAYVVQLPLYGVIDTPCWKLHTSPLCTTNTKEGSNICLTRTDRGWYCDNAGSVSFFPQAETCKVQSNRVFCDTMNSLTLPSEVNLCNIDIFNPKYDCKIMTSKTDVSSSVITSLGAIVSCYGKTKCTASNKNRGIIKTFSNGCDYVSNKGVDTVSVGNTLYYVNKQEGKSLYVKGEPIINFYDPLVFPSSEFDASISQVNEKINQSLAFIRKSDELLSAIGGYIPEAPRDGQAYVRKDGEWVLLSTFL
T1 chain 2: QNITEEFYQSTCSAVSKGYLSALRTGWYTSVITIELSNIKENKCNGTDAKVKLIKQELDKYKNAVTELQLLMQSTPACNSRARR

[14] = molecular target: T1, RSV F protein of subtype A comprising a …; experiment: AM14 ELISA; F5 (pH 6, 100 mM NaCl, 9.0% sucrose); 1 wk 5°C
[15] = molecular target: T1, RSV F protein of subtype A comprising a …; experiment: AM14 ELISA; F5 (pH 6, 100 mM NaCl, 9.0% sucrose); 2 wk 5°C
[16] = molecular target: T1, RSV F protein of subtype A comprising a …; experiment: AM14 ELISA; F10 (pH 7, 50 mM NaCl, 4.5% sucrose); 1 wk 25°C
[17] = molecular target: T1, RSV F protein of subtype A comprising a …; experiment: AM14 ELISA; F8 (pH 7, 50 mM NaCl, 0% sucrose); 2 wk 5°C
[18] = molecular target: T1, RSV F protein of subtype A comprising a …; experiment: AM14 ELISA; F16 (pH 6, 0 mM NaCl, 0% sucrose); T0
[19] = molecular target: T1, RSV F protein of subtype A comprising a …; experiment: AM14 ELISA; F7 (pH 6, 100 mM NaCl, 0% sucrose); 2 wk 25°C
[20] = molecular target: T1, RSV F protein of subtype A comprising a …; experiment: AM14 ELISA; F9 (pH 8, 50 mM NaCl, 4.5% sucrose); 2 wk 5°C

Row | Molecule | Prefusion Content (%) [1] [%] | Prefusion Content (%) [2] [%] | Prefusion Content (%) [3] [%] | Prefusion Content (%) [4] [%] | Prefusion Content (%) [5] [%] | Prefusion Content (%) [6] [%] | Prefusion Content (%) [7] [%] | Prefusion Content (%) [8] [%] | Prefusion Content (%) [9] [%] | Prefusion Content (%) [10] [%] | Prefusion Content (%) [11] [%] | Prefusion Content (%) [12] [%] | AM14 prefusion content (%), relative to standard [13] [%] | AM14 prefusion content (%), relative to standard [14] [%] | AM14 prefusion content (%), relative to standard [15] [%] | AM14 prefusion content (%), relative to standard [16] [%] | AM14 prefusion content (%), relative to standard [17] [%] | AM14 prefusion content (%), relative to standard [18] [%] | AM14 prefusion content (%), relative to standard [19] [%] | AM14 prefusion content (%), relative to standard [20] [%]
1 | AM14 Fab | 68 | 53 | 82 | 66 | 69 | 76 | 68 | 75 | 62 | 46 | 74 | 70 |  |  |  |  |  |  |  | 
2 | AM14 (trimeric prefusion specific antibody of the AM14 ELISA) (antibody, V domains shown, Antibody as used in the AM14 ELISA, detected with an HRP-labeled secondary antibody) VH: EVQLVESGGGVVQPGRSLRLSCAASGFSFSHYAMHWVRQAPGKGLEWVAVISYDGENTYYADSVKGRFSISRDNSKNTVSLQMNSLRPEDTALYYCARDRIVDDYYYYGMDVWGQGATVTVSS VL: DIQMTQSPSSLSASVGDRVTITCQASQDIKKYLNWYHQKPGKVPELLMHDASNLETGVPSRFSGRGSGTDFTLTISSLQPEDIGTYYCQQYDNLPPLTFGGGTKVEIKR |  |  |  |  |  |  |  |  |  |  |  |  | 97 | 78 | 76 | 82 | 101 | 80 | 55 | 92
